The assay addresses RhoA (UniProt P61586).

Sequence of SseJ (Q9FD10 whole entry): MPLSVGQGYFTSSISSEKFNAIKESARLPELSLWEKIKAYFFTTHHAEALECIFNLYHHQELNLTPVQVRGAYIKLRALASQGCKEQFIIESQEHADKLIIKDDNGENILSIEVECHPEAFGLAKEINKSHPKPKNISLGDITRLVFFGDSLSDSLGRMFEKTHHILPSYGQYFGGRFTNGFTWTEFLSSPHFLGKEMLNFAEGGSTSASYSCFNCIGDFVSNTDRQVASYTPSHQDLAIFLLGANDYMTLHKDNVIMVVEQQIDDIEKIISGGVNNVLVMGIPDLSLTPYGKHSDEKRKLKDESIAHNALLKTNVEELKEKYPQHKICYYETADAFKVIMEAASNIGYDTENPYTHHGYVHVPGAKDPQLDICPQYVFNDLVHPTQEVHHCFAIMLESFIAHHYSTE
Sequence of RhoA (P61586 whole entry): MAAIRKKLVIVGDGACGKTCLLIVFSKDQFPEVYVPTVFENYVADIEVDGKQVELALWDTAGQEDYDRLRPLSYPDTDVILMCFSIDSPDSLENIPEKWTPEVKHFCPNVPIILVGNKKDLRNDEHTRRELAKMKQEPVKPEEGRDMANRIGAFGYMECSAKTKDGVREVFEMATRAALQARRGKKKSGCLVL

In turn, “SseJ (from UniProt Q9FD10 1-408) (enzyme)” gave a SseJ lipase stimulation (PNPP), 200 nM SseJ and 200 nM RhoA-GDP of 0.21 mAU/min; a SseJ lipase stimulation (PNPP), 200 nM SseJ and 200 nM RhoA-GTPγS of 1.2 mAU/min.

These data come from paper PMC5096451.
